# Results from the DeepSol protein solubility set.
# Assay: soluble on expression in E. coli; label from the status in PepcDB or PDB records
row,Sequence,soluble on expression in E. coli
1,MGSDKIHHHHHHMLTLANVALLSQLALQQPGETDKKPEDCSFEQIEFTINFAVGRLNHCEKTGDNQYKLFLEPEREKINPSPWYAFAVKNKTETSQTIDITLVASEGVSRYKPKRSEGDDIWHAIPFSEGDGTLQFELTLSGQTKEYIAGQEIIDNVHYIEWLSSLIKEPQQTEVISLGVSSEGRNLAALEHRVESSDKWIILIGRQHPPEVTGALALLHFGELLFSDEPYVVKFRQKYNILLVPNMNPDGVYHGNWRLTAAGIDMNRDWKNLTLPETQAMANYLKKLVKDGGKIEFAIDFHSTRKNVFYTMPEDYEPRSGVPLRNPQRVYNWIEEIEELVGSVELDYQPGAHPESGVFKQFIADEFAAHAVTYEVSDNEERNNIKKVAEAALISLINRLD,not soluble
2,MCQFIETIRIEDGQVYNLSYHTARMNRTRAAFWKEAAPIDLSGFISPPSLSGIWKCRIVYDKEIEEVGYTPYQMRMVSSLRPVASDTIDYSYKSTNREELNDLFARRGKADDILIVKDGYLTDTSIANIALYDGHTWYTPAHPLLQGTKRAELLDNRFIVEKDIRQAQLGDYSHIMLFNAMIDWKRLIIPVNEKYFIL,not soluble
3,GGMEVLDLVTGPDSVTEIEAFLNPRMGQPPTPESLTEGGQYYGWSRGINLATSDTEDSPGNNTLPTWSMAKLQLPMLNEDLTCDTLQMWEAVSVKTEVVGSGSLLDVHGFNKPTDTVNTKGISTPVEGSQYHVFAVGGEPLDLQGLVTDARTKYKEEGVVTIKTITKKDMVNKDQVLNPISKAKLDKDGMYPVEIWHPDPAKNENTRYFGNYTGGTTTPPVLQFTNTLTTVLLDENGVGPLCKGEGLYLSCVDIMGWRVTRNYDVHHWRGLPRYFKITLRKRWVKNPYP,soluble
4,MSPGERFLDWLKRLQGQKAWTAARAAFRRSLAFPPGAYPRAMPYVEPFLAKGDWRQEEREAHYLVAALYALKDGDHQVGRTLARALWEKAQGSASVEKRFLALLEADRDQIAFRLRQAVALVEGGIDFARLLDDLLRWFSPERHVQARWAREYYGAGASEEEKKKEVEA,soluble
5,GAMGIVGVGIDLVSIPDFAEQVDQPGTVFAETFTPGERRDASDKSSSAARHLAARWAAKEAVIKAWSGSRFAQRPVLPEDIHRDIEVVTDMWGRPRVRLTGAIAEYLADVTIHVSLTHEGDTAAAVAILEAP,soluble
6,GAMDPDLEATLRAIVHSATSLVDARYGAMEVHDRQHRVLHFVYEGIDEETVRRIGHLPKGLGVIGLLIEDPKPLRLDDVSAHPASIGFPPYHPPMRTFLGVPVRVRDESFGTLYLTDKTNGQPFSDDDEVLVQALAAAAGIAVANARLYQQAK,soluble
7,GMPTDDIVQLLKGQEEAWNRGDLDAYMQGYWQNEQLMLISNGKFRNGWDETLAAYKKNYPDKESLGELKFTIKEIKMLSNYAAMVVGRWDLKRLKDTPTGVFTLLVEKIDDRWVITMDHSSD,soluble
8,EQTALKKVAEMARLADSYVSAWGDEAKVSDETLRRLLTSLGYDTSSDEKLLASAEKKHKKDVLAPVLVLRDGEPVEVELNLGTSARESEFSWRLETEQGEVLEGYLQSQIVRDERAEGGPLVFALPKNLAWGYHKLIISRKRRKTPYEMSLIITPKACFKQEDLNQ,not soluble
9,SLLCVVGGSMNVSMEASIVESLLQRRCLKESDLYRARQLQAESGVGLLPLLGRLGLVSERDHAEVCAEVMGLLLIQVRELPDTPPEFSAEVHGLSIRFLKQFHVCPLAEHDGVLQLCVADPFDVYAIEALRLATGAVLQLCIGLRSEIDDLVERWYGQGRS,soluble
10,MGSDKIHHHHHHMRYDIVIIGGAIVGSSIAYYLREEGFSGSIALIERDPQFAHAATTLSMASIRQQFSIPENIRLSQFTLKLFRRLKETFGTDADIGFREGGYLILAGENGLPVLKANHDAQVAEGADIVLEDAEQLTRRFAWLSAEGISAGAYGRTGEGWFDAHAMLMLFRKALRDKKIDFIAASVTGIARDGDRVTGVSLDNGQTLEAGIVVNAAGPNAGKVAALAGLALPVEPRKRNVFVFEAREKYADMPLLVDPSGIYVRPEGSVYLTGGAEPEEGDGPADPSDFEVDWPLFEEVIWPVLATRIPAFEAIKATRAWAGHYDYNTLDQNAVIGPHPEVGNFIFANGFSGHGLQQAPAVGKALAEFLVHGGYRTIDCSAFGYGRVAEGRAFRELNVI,not soluble
11,MGHHHHHHSHMKTTLKMTALAALSAFVLAGCGSHQMKSEGHANMQLQQQAVLGLNWMQDSGEYKALAYQAYNAAKVAFDHAKVAKGKKKAVVADLDETMLDNSPYAGWQVQNNKPFDGKDWTRWVDARQSRAVPGAVEFNNYVNSHNGKVFYVTNRKDSTEKSGTIDDMKRLGFNGVEESAFYLKKDKSAKAARFAEIEKQGYEIVLYVGDNLDDFGNTVYGKLNADRRAFVDQNQGKFGKTFIMLPNANYGGWEGGLAEGYFKKDTQGQIKARLDAVQAWDGK,not soluble
12,MGSDKIHHHHHHMNIDKLDYHSLIIFESISRHLNAGLVANELGMSISSVSRHLGILRDIFKDVLFIRRAQGFVLSDKAIQLLPYIKQLLHDYQVIKHNHIHFNPLTARGHFKIYAYNEFTYVINKVIHQYILPQAPNLTFEVRTLSSDCSRAIEHGEIDFAVVYERFKDHKIICEMFSPTEELFLIAKEGHAVFEDEFTLANLCQYDYFALDNYNDLPMPLLEQLGKTEGKAVNVLGATDNIAALSRHILDGRAISMSCNVFTREFYSLIKGIRTATLPSALTERLLKQITVGRTVGNYLIYSEINQSPTHHWLKQQLFNGIRDEWYLAMGR,not soluble
13,MGSDKIHHHHHHMYHEFTPCAALVPFIDKFWVFKGFTDIGTRFKILADGCTDFIFSIGNMTVPTDEHSMIMQPYRSFFVGPMRSYSNLTATTDSLHMLGVRFQPCGLAAFTNEPLGQFADLRIQSSDINLLFDNSFAEMLCEQPDDSVRIRIIEGYLIRLLTQSIQVDRQIIYATSFIKQSYGQLPVQNLIDKICICQRHFQRKFKDATGYTPKEFSRIIKFQYAIEVLRNAPHTDLSSIALDCGYYDHSHFIKEFKRLAGDVPSYFLTLPNPADEPLTYI,not soluble
14,MGSDKIHHHHHHMSRFVGTETEYGIATPSNTMLSPIVTSTHAVVAFSLGERCASQARWDFSEESPLRDLRGFDLRRYRTVPVVDPHALGVANSVLINGGRFYVDHAHPEYSSPETSSAFQAMLYDAAGDVVMNRAVELVAENSQRKHSVLEHHDPCPPLKIYKNNVDGKGASYGSHENYLYNRETPFEEISSGLTPFFITRQVIIGAGRVGIGQYGEKSGFQISQRADYIEQEISLETTLNRGIINTRDEPHADSEHFGRLHVIIGDANMSQTSNFLKIGMTTLVLDAIEAGVDFSDLAVANPVAEVSAISHDLTLTHKIVLRDGRTLTALELLDEYRKRVSPQSDDDLDVLKEWSEILVLLQKGPFYAADRLDWCAKWQLISSFIKRGVSIDDPKIQLIDLQYADIDPAKSLYHALVRKGRMRTLVSTEQINNAAWSPPKGSRAYLRGSLISRFPDSVVQASWDSITLQTSRDQATKIKMPVVQSLSAEAIATIDTASSVKEVATILSQWLPVTTISLT,not soluble
15,MINRVPTNIITGFLGVGKTTAILHLLATKPAHEKWAVLVNEFGEIGIDGAIMSEQGAMIKEVPGGCLCCTAGVPMSVGINALLRQKPDRLIIEPTGLGHPKQVVATLISEQYQPYVDLKATIALMDPRHLSMDKYRSNQNFNDQLASADIVLGNKVDQCSSSDIDAFNDWVTDQTPAKTFSQLIKQGQFPIELLDMPRLVGHASTHIDSHHHHHAADEPQFQLAPQQPFLRKENRGQGYFSCGWLFGAEYQFNFDLLFQLLNDLTAERVKGVLNTDRGCYAFNVANGVVSVTEMSLDGFESRLEVIDSQLMPWSELESILLKIAGIPQALEHHHHHH,not soluble
16,MAHHHHHHMEQLNDDDERENLYFVDHGRPKYKHTDLLAMLRDAQSAIIRFSEENRDIIADAVNFASTSERANTLRKLEEAYLGIVKVQAPMVRCSRPAFRKLCRLWGTDVSYTHMIMADSFTCSDAARHADFSMYAGEERLVAQIASCSGPVAAEAATLLAPYCDAIDLNCGCPQRWIIKEGLGSALLQKPEVVADMVRCIHNGLSGGVDLPCVVKMRVSNDVGRSVDFARQCEAAGCGWITVHGRTPSCSAHAPVRLDAIRTIRECVSVPVVANGGVNNPQTALKTSLTTGAGAVMSATGLLANPACFYVPREGELLLFAPQRRGVDVALEASMGPCRGADEGASTAGSENSAWLKGLPGCPVEVISDFIRLSCVTDLASKATSMHLLKMGGNYLSPTERVFLAQMHSSFSVVSALQQLGLYTQDGKFRVVESVT,soluble
17,MSLTRKKYTYKMRSYINASHAIRWEAGIGSEHPHTWEIICEIVSSNDHMIKFEDIEEVITETISGLSGKFLNTIAPFDKINPTLENLTNYLFDMITDSLKKINCKLIRIEVGESPTRFYCISLDEGHHHHHH,soluble
18,MSETVQLDVGGTIFKTSKSTLTKFNGFLKIMLESDIGLKIDESGSIFIDRSPKHFDLILNFMRDGDVVLPSCELTVKELLAEAQFYLLDELIELCSLKIEPVQAPKIKLRFIENDSQLLQILAAQQKPMLIIEYCMVGNDMSIPYNFNLYEFIEKQSHQFDIYFQRLSEDESSHKWKARIKWKPTENGYYSQFPYNLRINRGGRIIRDAKFLFLFFSSWLSSKNHCSLLDMCMIPIDCIVCPFQKISMCVPSLIRIPISSRFISRNIKIISFGLQR,soluble
19,MEQAMLKTLALLVLGMHYWCATGFPVYDYDPSSLQEALSASVAKVNSQSLSPYLFRATRSSLKRVNVLDEDTLVMNLEFSVQETTCLRDSGDPSTCAFQRGYSVPTAACRSTVQMSKGQVKDVWAHCRWASSSESNSSEEMMFGDMARSHRRRNDYLLGFLSDESRSEQFRDRSLEIMRRGQPPAHRRFLNLHRRARVNSGFE,soluble
20,MGSDKIHHHHHHENLYFQGMRFLAYFGHLNIDVLISVDSIPREGSVNVKDLRPRFGGTAGNFAIVAQKFRIPFDLYSAVGMKTHREYLAMIESMGINTGHVEKFEDESGPICYIATDGKKQVSFMHQGAMAAWAPQLADEYEYVHFSTGPNYLDMAKSIRSKIIFDPSQEIHKYSKDELKKFHEISYMSIFNDHEYRVFREMTGLSSPKVTTIVTNGERGSSLFMDGKKYDFPAIPSSGDTVGAGDSFRAGLYLALYNRRSIEKGMIYGTIIAHHVIDDGIENFSLNMEDLERETENYRRMFTKRS,soluble
21,MDRMKIEAVIFDWAGTTVDYGCFAPLEVFMEIFHKRGVAITAEEARKPMGLLKIDHVRALTEMPRIASEWNRVFRQLPTEADIQEMYEEFEEILFAILPRYASPINAVKEVIASLRERGIKIGSTTGYTREMMDIVAKEAALQGYKPDFLVTPDDVPAGRPYPWMCYKNAMELGVYPMNHMIKVGDTVSDMKEGRNAGMWTVGVILGSSELGLTEEEVENMDSVELREKIEVVRNRFVENGAHFTIETMQELESVMEHIEKQELIIS,soluble
22,MGHDTIAKFLLTSGSTGNPKAVINTQRMICANQVMIREAMAFLKDEPPVIVDWLPWNHTFGGNHNIGLTLFNGGSMYIDDGKPTPAGIASTIRNLREIAPTVYFNVPKGYESLLPVLREDQQLRKLFFSRLHAMFFSGASLAAHVWNGLDEVAVAETGARVPMLTGLGATETAPFFMSVTPQTSRSGHVGLPVPGLEHHHHHH,not soluble
23,SSQVPDVMVVGEPTLMGGEFGDEDERLITRLENTQFDAANGIDDEGGSGGHMGSGGTPEIPMCAGCDQHILDRFILKALDRHWHSKCLKCSDCHVPLAERCFSRGESVYCKDDFFKRFGTKCAACQLGIPPTQVVRRAQDFVYHLHCFACVVCKRQLATGDEFYLMEDSRLVCKADYETAKQ,soluble
